Sequences and labels used below:
B1: GST-Mcm4 (1-471) (domain or fragment, yeast, UniProt P30665 1-471, looked up)
chain: MSQQSSSPTKEDNNSSSPVVPNPDSVPPQLSSPALFYSSSSSQGDIYGRNNSQNLSQGEGNIRAAIGSSPLNFPSSSQRQNSDVFQSQGRQGRIRSSASASGRSRYHSDLRSDRALPTSSSSLGRNGQNRVHMRRNDIHTSDLSSPRRIVDFDTRSGVNTLDTSSSSAPPSEASEPLRIIWGTNVSIQECTTNFRNFLMSFKYKFRKILDEREEFINNTTDEELYYIKQLNEMRELGTSNLNLDARNLLAYKQTEDLYHQLLNYPQEVISIMDQTIKDCMVSLIVDNNLDYDLDEIETKFYKVRPYNVGSCKGMRELNPNDIDKLINLKGLVLRSTPVIPDMKVAFFKCNVCDHTMAVEIDRGVIQEPARCERIDCNEPNSMSLIHNRCSFADKQVIKLQETPDFVPDGQTPHSISLCVYDELVDSCRAGDRIEVTGTFRSIPIRANSRQRVLKSLYKTYVDVVHVKKVSD
B2: 6His-Mcm2 (1-299) (domain or fragment, yeast, UniProt P29469 1-299, looked up)
chain: MSDNRRRRREEDDSDSENELPPSSPQQHFRGGMNPVSSPIGSPDMINPEGDDNEVDDVPDIDEVEEQMNEVDLMDDNMYEDYAADHNRDRYDPDQVDDREQQELSLSERRRIDAQLNERDRLLRNVAYIDDEDEEQEGAAQLDEMGLPVQRRRRRRQYEDLENSDDDLLSDMDIDPLREELTLESLSNVKANSYSEWITQPNVSRTIARELKSFLLEYTDETGRSVYGARIRTLGEMNSESLEVNYRHLAESKAILALFLAKCPEEMLKIFDLVAMEATELHYPDYARIHSEIHVRISD
B3: GST-Mcm6 (1-439) (domain or fragment, yeast, UniProt P53091 1-439, looked up)
chain: MSSPFPADTPSSNRPSNSSPPPSSIGAGFGSSSGLDSQIGSRLHFPSSSQPHVSNSQTGPFVNDSTQFSSQRLQTDGSATNDMEGNEPARSFKSRALNHVKKVDDVTGEKVREAFEQFLEDFSVQSTDTGEVEKVYRAQIEFMKIYDLNTIYIDYQHLSMRENGALAMAISEQYYRFLPFLQKGLRRVVRKYAPELLNTSDSLKRSEGDEGQADEDEQQDDDMNGSSLPRDSGSSAAPGNGTSAMATRSITTSTSPEQTERVFQISFFNLPTVHRIRDIRSEKIGSLLSISGTVTRTSEVRPELYKASFTCDMCRAIVDNVEQSFKYTEPTFCPNPSCENRAFWTLNVTRSRFLDWQKVRIQENANEIPTGSMPRTLDVILRGDSVERAKPGDRCKFTGVEIVVPDVTQLGLPGVKPSSTLDTRGISKTTEGLNSGVTG

What all share (test): pull-down
The target in one assay is T1, Mcm10 (GST tag removed) (yeast, UniProt P32354 1-571).
T1 sequence (looked up): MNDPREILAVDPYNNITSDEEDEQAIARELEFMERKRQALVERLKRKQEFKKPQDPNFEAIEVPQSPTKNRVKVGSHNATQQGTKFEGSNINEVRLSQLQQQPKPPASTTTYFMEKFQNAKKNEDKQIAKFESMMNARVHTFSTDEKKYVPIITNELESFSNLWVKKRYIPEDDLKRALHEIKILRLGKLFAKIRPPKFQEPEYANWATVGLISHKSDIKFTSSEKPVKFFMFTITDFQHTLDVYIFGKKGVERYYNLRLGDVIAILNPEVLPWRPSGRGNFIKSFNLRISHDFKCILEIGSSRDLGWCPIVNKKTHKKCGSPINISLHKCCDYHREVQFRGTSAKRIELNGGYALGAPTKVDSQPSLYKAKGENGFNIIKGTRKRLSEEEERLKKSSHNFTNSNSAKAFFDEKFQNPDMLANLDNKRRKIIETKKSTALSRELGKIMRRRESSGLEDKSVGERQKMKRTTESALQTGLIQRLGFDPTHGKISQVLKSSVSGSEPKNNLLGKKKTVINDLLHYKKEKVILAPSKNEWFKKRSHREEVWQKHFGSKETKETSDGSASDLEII

The assay “GST-Mcm6 (1-439)” has as its target B3.
The assay “GST-Mcm4 (1-471)” has as its target B1.
The next assay addresses T2, GST-Mcm10 (yeast, UniProt P32354 1-571).
T2 sequence (looked up): T1 sequence (looked up)

As to B1, the binding result in the assay with Mcm10 (GST tag removed) is “binds”.

Turning to B2, the binding result with GST-Mcm6 (1-439), with GST-Mcm4 (1-471) and in the assay with GST-Mcm10 was “binds” throughout.

Turning to B3, the binding result in the assay with Mcm10 (GST tag removed) is listed as “binds”.

The record behind these values is paper PMC5536962 (Cell reports, 2015).
